One molecule from patent publication US20180244758A1 (MAPP BIOPHARMACEUTICAL, published 2018) can be followed below.

The target of this assay is T1, RESTV GP (Reston virus (RESTV), UniProt Q66799 34-638).
T1 sequence: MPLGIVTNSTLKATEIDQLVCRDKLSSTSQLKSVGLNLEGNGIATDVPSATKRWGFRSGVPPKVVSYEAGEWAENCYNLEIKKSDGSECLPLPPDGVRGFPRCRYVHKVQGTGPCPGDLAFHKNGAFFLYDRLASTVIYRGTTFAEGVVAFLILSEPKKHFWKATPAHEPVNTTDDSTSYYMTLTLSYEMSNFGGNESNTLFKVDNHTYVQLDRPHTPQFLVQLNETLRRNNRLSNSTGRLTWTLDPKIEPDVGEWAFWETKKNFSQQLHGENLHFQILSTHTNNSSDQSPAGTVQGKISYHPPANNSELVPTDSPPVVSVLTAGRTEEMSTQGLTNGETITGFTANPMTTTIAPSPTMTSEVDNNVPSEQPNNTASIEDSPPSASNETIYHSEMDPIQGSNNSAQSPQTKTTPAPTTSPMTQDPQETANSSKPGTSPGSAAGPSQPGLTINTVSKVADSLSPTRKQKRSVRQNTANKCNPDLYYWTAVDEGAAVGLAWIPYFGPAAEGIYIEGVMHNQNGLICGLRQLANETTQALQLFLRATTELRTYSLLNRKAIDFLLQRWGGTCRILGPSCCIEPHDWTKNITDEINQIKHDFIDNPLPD
As to the kind of experiment: ELISA, GP antigen coated. On the technique in general: In an ELISA, binding on a coated surface is turned into a signal by an enzyme label.

B1: mAb PE-16 (antibody, V domains shown)
VH: QVQLVQSGAEVTKPGASVKVSCKASGYTFTTYYMHWVRQAPGQGLEWVGIINPSGGITRYAQKFQGRVTLTRDTSTTTVYMELSSLRSEDTAVYYCARDRYPVLFATDYGMDVWGQGTTVTVSS
VL: DIVMTQSPATLSLSPGERATLSCRASQSVSGYLAWYQQKPGQAPRLLIYDASNRATGIPARFSGSGSGTDFTLTISSLEPEDFAVYYCQQRSIWPPGVTFGGGTKVEIK
With B1, the binding result is recorded as “no binding (tested: 0.2 µg/ml)”.
